Assay results as given in paper PMC4176481, “Influence of D-glutamine and D-glutamic acid sequences in optical peptide probes targeted against the cholecystokinin-2/gastrin-receptor on binding affinity, specificity and pharmacokinetic properties” (EJNMMI Research, 2013).

Assays:
CCK2R (A431/CCK2R cells) = biological target: T1, CCK2R (A431/CCK2R cells) (Homo sapiens, UniProt P32239); design: method as in PMID 23591397; conditions: earlier probe with a spacer of six uncharged D-glutamines; read-out: dissociation constant Kd; cited from earlier work
T1 construct: expressed in transfected cells; host or cells: A431 human epidermoid carcinoma cells, stably transfected (gift from Dr. Luigi Aloj)
T1 sequence (P32239 1-447): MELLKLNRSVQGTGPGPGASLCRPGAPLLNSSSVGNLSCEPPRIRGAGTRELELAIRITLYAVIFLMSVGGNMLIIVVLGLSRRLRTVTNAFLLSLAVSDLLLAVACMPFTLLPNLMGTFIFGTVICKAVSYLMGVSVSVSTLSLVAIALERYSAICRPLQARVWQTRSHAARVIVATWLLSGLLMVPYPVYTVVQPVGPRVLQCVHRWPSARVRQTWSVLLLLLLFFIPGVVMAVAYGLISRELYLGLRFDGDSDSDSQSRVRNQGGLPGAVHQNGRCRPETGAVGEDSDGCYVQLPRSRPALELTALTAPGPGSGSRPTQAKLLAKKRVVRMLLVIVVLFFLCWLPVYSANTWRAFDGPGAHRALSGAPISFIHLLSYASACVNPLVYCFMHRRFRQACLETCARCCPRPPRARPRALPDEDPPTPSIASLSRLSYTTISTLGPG

[1] = biological target: T2, cholecystokinin-2/gastrin receptor (CCK2R) (Homo sapiens, UniProt P32239); test: competition with QE probe on cells, NIR fluorescence
T2 chain: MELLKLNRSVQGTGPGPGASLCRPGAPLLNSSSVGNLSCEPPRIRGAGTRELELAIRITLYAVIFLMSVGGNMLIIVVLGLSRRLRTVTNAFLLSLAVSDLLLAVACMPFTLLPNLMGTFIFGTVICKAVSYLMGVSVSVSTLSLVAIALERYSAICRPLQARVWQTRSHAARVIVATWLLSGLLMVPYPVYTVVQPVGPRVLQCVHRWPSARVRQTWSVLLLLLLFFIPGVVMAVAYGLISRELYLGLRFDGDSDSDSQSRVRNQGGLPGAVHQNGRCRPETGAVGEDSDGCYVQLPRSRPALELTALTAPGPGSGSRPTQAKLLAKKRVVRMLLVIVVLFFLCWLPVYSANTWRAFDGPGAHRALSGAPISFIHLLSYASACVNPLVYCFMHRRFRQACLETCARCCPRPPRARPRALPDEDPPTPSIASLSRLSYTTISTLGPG

[2] = biological target: T2, cholecystokinin-2/gastrin receptor …; test: competition with bivQ probe on cells, NIR fluorescence
[3] = biological target: T2, cholecystokinin-2/gastrin receptor …; test: saturation binding on A431/CCK2R cells, NIR fluorescence

**Q.** Which Kd (CCK2R (A431/CCK2R cells)) does the source give for “dQ-MG-754: previously published optical minigastrin probe with a spacer of six uncharged D-glutamines and DY-754 (ref 20) (QQQQQQAYGWMDF; not fully specified; Synthetic minigastrin analogue; Residues 1-6 are D-Gln (the text states a spacer of six D-glutamines))” here?
**A.** Its Kd is 1.8 ± 0.6 nM.

**Q.** For LEEEEEAYGWMDF [HG-13 minigastrin], which IC50 [1] is on record?
**A.** Its IC50 is 16.7 nM.

**Q.** And the IC50 [2]?
**A.** The IC50 was 16.6 nM.

B1: QE minigastrin probe (peptide)
chain: {DY‑754}-AYGWMDF-NH2
modifications: also: N-terminal spacer of three alternating D-Gln and three D-Glu, order not given here, M5: Met or Nle
**Q.** Which Kd [3] does the source give for B1 here?
**A.** Its Kd is 5.8 nM.
